Positions count from the first letter of the chain named.
T1: ZPT2-14ZF (UniProt O22086 41-117)
T1 sequence: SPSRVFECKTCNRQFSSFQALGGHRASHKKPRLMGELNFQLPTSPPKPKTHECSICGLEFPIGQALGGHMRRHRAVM

B1: AGT-10-ACT (dsDNA)
DNA 1: CTCGAGAAATTTCCCGGAATTCCAGTGGGAAATTTCACTGGCCGGAATTTCCCGGGGGGATCC
DNA 2: GGATCCCCCCGGGAAATTCCGGCCAGTGAAATTTCCCACTGGAATTCCGGGAAATTTCTCGAG
B2: ACT-10-AGT (dsDNA)
DNA 1: B1 DNA 1 with G25C, C38G
DNA 2: B1 DNA 2 with G26C, C39G
B3: AGT-5-AGT (dsDNA)
DNA 1: CTCGAGAAATTTCCCGGAATTCCAGTGATCCAGTGGCCGGAATTTCCCGGGGGGATCC
DNA 2: GGATCCCCCCGGGAAATTCCGGCCACTGGATCACTGGAATTCCGGGAAATTTCTCGAG
B4: AGT-5-ACT (dsDNA)
DNA 1: B3 DNA 1 with G33C
DNA 2: B3 DNA 2 with C26G

These binders were tested against T1, ZPT2-14ZF (assay: EMSA; 25 mM HEPES-KOH pH 7.6, 40 mM KCl, 0.1% NP-40, 10 uM ZnCl2, 1 mg/mL BSA, 10% glycerol, 10 ug/mL poly(dI-dC), 1 mM DTT, 0.15 nM probe, 25 min at 20 C). Settings: protein: recombinant; tags: MBP fusion cleaved with TEV protease; untagged; label: 32P end.
B1 was tested, and the Kd was 10.4 ± 1.6 nM. In the case of B2, the Kd is reported as 11.6 ± 1.9 nM. B3 showed a Kd of 9.1 ± 1.2 nM. B4 gave a Kd of 21.7 ± 3.4 nM.

Source: PMC3268024, “Role of Linkers between Zinc Fingers in Spacing Recognition by Plant TFIIIA-Type Zinc-Finger Proteins”
